Data taken from PMC5858577.

Target: VEGF (human recombinant VEGF165 in the cell experiments) (human, UniProt P15692-4 27-191)
Experiment: fluorescence recovery by displacement from gold nanorod

B1: gapmer aptamer probe (XNA)
DNA: CAATTGGGCCCGTCCGTATGGTGGGT
modifications: LNA monomers at both ends, DNA in the middle; exact positions only in Fig. 1b/Supplementary Table 1
Does B1 bind?
Result: binds
